One assay concerns the target T1, rat NKG2D (rat, UniProt O70215 1-215, limits assumed).
T1 construct: The assay format for the cross-reactivity test is not described
T1 sequence (looked up): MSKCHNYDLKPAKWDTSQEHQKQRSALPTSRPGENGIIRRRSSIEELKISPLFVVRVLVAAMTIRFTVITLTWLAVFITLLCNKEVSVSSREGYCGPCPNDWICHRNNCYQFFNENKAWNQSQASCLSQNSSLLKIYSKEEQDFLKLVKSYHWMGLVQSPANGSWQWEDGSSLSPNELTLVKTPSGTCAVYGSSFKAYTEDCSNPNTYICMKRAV
The experiment in a line: not described.

The target in a further assay is T2, dog NKG2D (dog, UniProt A0A8I3PNL2 1-217).
T2 construct: The assay format for the cross-reactivity test is not described
T2 sequence: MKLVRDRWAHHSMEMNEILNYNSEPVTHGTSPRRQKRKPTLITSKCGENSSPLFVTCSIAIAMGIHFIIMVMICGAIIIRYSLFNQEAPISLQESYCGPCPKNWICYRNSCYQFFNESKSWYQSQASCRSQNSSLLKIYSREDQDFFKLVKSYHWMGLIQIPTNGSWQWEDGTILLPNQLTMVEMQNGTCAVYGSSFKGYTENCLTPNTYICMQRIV
The experiment in a line: not described.

The target in a further assay is T3, pig NKG2D (pig, UniProt Q9GLF5 1-214, limits assumed).
T3 construct: The assay format for the cross-reactivity test is not described
T3 sequence (looked up): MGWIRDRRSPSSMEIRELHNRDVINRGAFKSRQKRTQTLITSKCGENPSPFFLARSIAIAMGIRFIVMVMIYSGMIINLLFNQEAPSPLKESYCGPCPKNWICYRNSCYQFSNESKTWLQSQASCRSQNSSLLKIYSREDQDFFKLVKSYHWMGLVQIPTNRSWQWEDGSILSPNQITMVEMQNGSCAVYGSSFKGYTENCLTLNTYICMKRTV
In words: not described.

Assay [1] deals with T4, human NKG2D (hNKG2D) on the cell surface (human, UniProt P26718 1-216).
T4 construct: Carried by BaF/3 cells co-transfected with full-length NKG2D and DAP10, or naturally by human NK, CD8+ T and gamma-delta T cells (PBMC, whole blood); also called cell-surface NKG2D; NKG2D- and DAP10-expressing BaF/3 cells
T4 chain: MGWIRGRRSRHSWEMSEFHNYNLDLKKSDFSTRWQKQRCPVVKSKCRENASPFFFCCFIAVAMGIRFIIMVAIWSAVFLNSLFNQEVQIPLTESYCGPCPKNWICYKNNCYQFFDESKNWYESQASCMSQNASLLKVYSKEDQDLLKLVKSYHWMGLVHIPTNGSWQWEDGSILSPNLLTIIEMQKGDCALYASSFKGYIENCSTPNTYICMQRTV
In words: flow cytometry, NKG2D/DAP10 BaF/3 cells pre-incubated with antibody, then 1 µg MICA-mFc (competitor). On the procedure:
(§1) Flow cytometry assays—MICA blockade. […] The cells were then analysed on a B&D FACSArray flow cytometer. The degree of reduction of MICA binding by preincubation was analysed as MFI (mean fluorescence intensity) of binding with pre-incubation in % of binding of MICA without preincubation.

In assay [2] the target is T5, rhesus monkey NKG2D on NK and CD8+ T cells (rhesus monkey (Macaca mulatta), UniProt Q9MZJ7 1-216).
T5 construct: whole, on cells; Target on rhesus PBMC; also called rhesus NKG2D
T5 sequence (looked up): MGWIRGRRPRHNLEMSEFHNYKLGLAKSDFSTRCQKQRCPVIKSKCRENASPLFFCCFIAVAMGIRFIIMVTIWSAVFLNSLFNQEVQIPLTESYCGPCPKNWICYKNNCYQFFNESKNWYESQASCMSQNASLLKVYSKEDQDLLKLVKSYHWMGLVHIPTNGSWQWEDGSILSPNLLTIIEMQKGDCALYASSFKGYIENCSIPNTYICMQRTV
The experiment in a line: flow cytometry on rhesus PBMC, NK cells gated; the legend names 16F16 purified from the original hybridoma. The method, then:
Flow cytometry assay—man and monkey PBMC. Perifieral blood mononuclear cells (PMBCs) were isolated from humans, or from Cynomologous or Rhesus monkey. All animal work were performed according to Danish National Research Council guidelines.

The target of assay [3] is T4, human NKG2D (hNKG2D) on the cell surface. The experiment in a line: flow cytometry blocking assay on NKG2D/DAP10-expressing BaF/3 cells: pre-incubation with the antibody, then 1 µg MICA-mFc; y axis % remaining MICA-Fc binding. On the procedure:
as §1

B1: 16F16, fully human anti-hNKG2D monoclonal antibody, recombinantly expressed as IgG4 isotype (antibody, V domains shown)
VH: EVQLVESGGGLVKPGGSLRLSCAASGFTFSSYSMNWVRQAPGKGLEWVSSITSSSSYIYYADSVKGRFTISRDNAKNSLYLQMNSLRAEDTAVYYCARDRRYFDWFPLDYRGQGTLVTVSS
VL: DIQMTQSPSSLSASVGDRVTITCRASQGISSWLAWYQQKPEKAPKSLIYAASSLQSGVPSRFSGSGSGTDFTLTISSLQPEDFATYYCQQYNGYPYTFGQGTKLEIKR
notes: also called 16F16 IgG4; 16F16 (IgG4)
As for B1, the binding result with rat NKG2D is “no binding”; with dog NKG2D, “no binding”; with pig NKG2D, “no binding”; in assay [2] it was “binds”. Besides, the “Full blockade of 1 µg MICA-Fc (antibody concentration)” value in assay [1] came to 0.59 µg/mL. Further, the IC50 in assay [1] amounted to 0.019 µg/mL. Further, the “IC50 (read off the curve)” value in assay [3] is approximately 0.02 nM.

Source of the values: US20100056764A1 (Novo Nordisk, published 2010).
